Measurements as given in publication doi:10.1101/2025.06.12.659319.

T1: ΔNp63α (RLuc- and YFP-fusions, full length) (human), Q9H3D4
T1 chain: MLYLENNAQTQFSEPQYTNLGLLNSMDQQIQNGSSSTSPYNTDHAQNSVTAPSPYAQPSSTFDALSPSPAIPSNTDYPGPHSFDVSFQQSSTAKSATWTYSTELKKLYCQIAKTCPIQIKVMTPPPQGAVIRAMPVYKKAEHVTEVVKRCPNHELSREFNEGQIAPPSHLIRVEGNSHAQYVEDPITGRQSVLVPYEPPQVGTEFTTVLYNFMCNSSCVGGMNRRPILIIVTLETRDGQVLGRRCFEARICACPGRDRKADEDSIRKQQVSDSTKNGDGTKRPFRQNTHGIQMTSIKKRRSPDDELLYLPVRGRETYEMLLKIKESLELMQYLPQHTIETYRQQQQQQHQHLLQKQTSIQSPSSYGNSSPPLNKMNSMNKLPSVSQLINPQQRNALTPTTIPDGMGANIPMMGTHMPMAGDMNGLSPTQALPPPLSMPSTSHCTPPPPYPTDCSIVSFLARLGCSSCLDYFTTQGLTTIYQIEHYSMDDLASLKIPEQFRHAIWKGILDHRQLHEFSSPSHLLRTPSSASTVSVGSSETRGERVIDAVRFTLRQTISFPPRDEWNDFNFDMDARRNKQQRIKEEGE


Columns and labels:
[1] = biological target: FITC-ΔNp63α NLSbip peptide (residues 278-302) (human); assay: fluorescence polarisation
[2] = biological target: T1, ΔNp63α (RLuc- and YFP-fusions, full …); assay: FRET or BRET; conditions: remark: other sources report otherwise

| Kd [1] [nM] | BRET ratio [2] | Molecule |
| --- | --- | --- |
| 4.3 | – | human IMPα1ΔIBB (importin α1 lacking the IMPβ1 binding domain) (domain or fragment) |
| 4.6 | – | human IMPα7ΔIBB (importin α7 lacking the IMPβ1 binding domain) (domain or fragment) |
| 6.7 | – | human IMPα3ΔIBB (importin α3 lacking the IMPβ1 binding domain) (domain or fragment) |
| – | 0.18 | ΔNp63α (RLuc- and YFP-fusions, full length), Q9H3D4-2 1-586 (natural protein) MLYLENNAQTQFSEPQYTNLGLLNSMDQQIQNGSSSTSPYNTDHAQNSVTAPSPYAQPSSTFDALSPSPAIPSNTDYPGPHSFDVSFQQSSTAKSATWTYSTELKKLYCQIAKTCPIQIKVMTPPPQGAVIRAMPVYKKAEHVTEVVKRCPNHELSREFNEGQIAPPSHLIRVEGNSHAQYVEDPITGRQSVLVPYEPPQVGTEFTTVLYNFMCNSSCVGGMNRRPILIIVTLETRDGQVLGRRCFEARICACPGRDRKADEDSIRKQQVSDSTKNGDGTKRPFRQNTHGIQMTSIKKRRSPDDELLYLPVRGRETYEMLLKIKESLELMQYLPQHTIETYRQQQQQQHQHLLQKQTSIQSPSSYGNSSPPLNKMNSMNKLPSVSQLINPQQRNALTPTTIPDGMGANIPMMGTHMPMAGDMNGLSPTQALPPPLSMPSTSHCTPPPPYPTDCSIVSFLARLGCSSCLDYFTTQGLTTIYQIEHYSMDDLASLKIPEQFRHAIWKGILDHRQLHEFSSPSHLLRTPSSASTVSVGSSETRGERVIDAVRFTLRQTISFPPRDEWNDFNFDMDARRNKQQRIKEEGE |
